We go through one substance from patent publication EP2292266A1.

The target of assay [1] is ErbB2 (human) (UniProt P04626). Briefly: FRET acceptor photobleaching.
Assay [2] has as its target ErbB2 (human) (UniProt P04626). Briefly: FRET acceptor photobleaching in fixed, HRG-treated SKBr3 cells (Alexa488 donor on Copine-III, Cy3 acceptor on ErbB2).
For assay [3], the target named is pTyr1248-containing peptide of ErbB2 (desthiobiotin-…-NH2, Tyr-phosphorylated form) (human). Briefly: SILAC peptide affinity pull-down from T47D lysates, MRM mass spectrometry; reference is the non-phosphorylated Tyr1248 peptide.

Copine III, sequence (O75131 whole entry): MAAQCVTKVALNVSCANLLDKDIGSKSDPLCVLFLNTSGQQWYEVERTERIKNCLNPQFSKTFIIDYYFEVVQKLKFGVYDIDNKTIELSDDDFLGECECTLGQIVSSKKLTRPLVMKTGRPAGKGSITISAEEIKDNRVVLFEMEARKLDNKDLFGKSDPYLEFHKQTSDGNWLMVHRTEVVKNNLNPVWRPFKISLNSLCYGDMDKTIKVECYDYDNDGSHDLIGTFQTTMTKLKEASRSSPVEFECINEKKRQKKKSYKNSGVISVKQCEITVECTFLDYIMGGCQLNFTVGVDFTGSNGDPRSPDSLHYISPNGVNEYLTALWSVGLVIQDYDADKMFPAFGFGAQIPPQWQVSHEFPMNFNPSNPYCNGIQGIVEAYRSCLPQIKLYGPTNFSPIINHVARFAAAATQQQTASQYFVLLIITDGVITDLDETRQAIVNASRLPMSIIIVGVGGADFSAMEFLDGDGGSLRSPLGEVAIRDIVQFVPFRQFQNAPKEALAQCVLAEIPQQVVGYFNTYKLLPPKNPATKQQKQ

Substance Copine III (from UniProt O75131 1-537) returned an FRET efficiency in assay [1] of 8. For the same substance, the FRET efficiency (E) in assay [2] was determined as 8.3. In addition, the quantification ratio (heavy/light peak area, pTyr peptide over Tyr peptide) in assay [3] was 1.8.
